Data published in US20100129369A1 (Eli Lilly, published 2010).

Legend:
human c-Met [1] = target: T1, human c-Met (human, UniProt P08581 25-1390); experiment: cell-based or functional assay
human c-Met [2] = target: T1, human c-Met; experiment: cell-based or functional assay; remark: listed apart in the source
Human c-Met-Flis-Fc ECD [3] = target: T2, Human c-Met-Flis-Fc ECD (human); experiment: ELISA, coated ECD-Fc, antibody 0.002 ng/mL
T2 construct: also called human c-Met extracellular domain (ECD)-Fc-Flis fusion; Human cMet-ECD-Fc-Flis
Protocol: (§1) Wells of 96-well EIA/RIA high binding plates (Costar, #2592) are coated with 100 μL of 1 μg/mL human c-Met extracellular domain (ECD)-Fc-Flis fusion (SEQ ID NO:72), RON-ECD-Fc (R&D Systems, #1947-MS), or PlexinA2-ECD-Fc (Abnova, Taipei, Taiwan #H00005362-P01) in coating buffer (BioFX Labs, # COAT-1000-01) overnight at 4° C. […] After the plates are washed, 100 μL/well of substrate solution (BioFx, #TMBW-1000-01) are added and the plates are incubated for 10 min. at room temperature. 100 μL/well of stop solution (BioFx, # LSTP-1000-01) are added to stop the reaction. The colorimetric signals are developed and read at 450 nm using a SpectraMax 190 plate reader (Molecular Devices, Sunnyvale, Calif.). c-Met antibody binding to c-Met, RON and PlexinA2 ECDs is proportional to color signal production.

Human c-Met-Flis-Fc ECD [4] = target: T2, Human c-Met-Flis-Fc ECD; experiment: ELISA, coated ECD-Fc, antibody 0.357 ng/mL
Protocol: as §1

Human c-Met-Flis-Fc ECD [5] = target: T2, Human c-Met-Flis-Fc ECD; experiment: ELISA, coated ECD-Fc, antibody 0.000 ng/mL
Protocol: as §1

Human c-Met-Flis-Fc ECD [6] = target: T2, Human c-Met-Flis-Fc ECD; experiment: ELISA, coated ECD-Fc, antibody 2.143 ng/mL
Protocol: as §1

Human c-Met-Flis-Fc ECD [7] = target: T2, Human c-Met-Flis-Fc ECD; experiment: ELISA, coated ECD-Fc, antibody 77.160 ng/mL
Protocol: as §1

Human c-Met-Flis-Fc ECD [8] = target: T2, Human c-Met-Flis-Fc ECD; experiment: ELISA, coated ECD-Fc, antibody 462.963 ng/mL
Protocol: as §1

Human c-Met-Flis-Fc ECD [9] = target: T2, Human c-Met-Flis-Fc ECD; experiment: ELISA, coated ECD-Fc, antibody 2777.778 ng/mL
Protocol: as §1

Human c-Met-Flis-Fc ECD [10] = target: T2, Human c-Met-Flis-Fc ECD; experiment: ELISA, coated ECD-Fc, antibody 0.010 ng/mL
Protocol: as §1

Human c-Met-Flis-Fc ECD [11] = target: T2, Human c-Met-Flis-Fc ECD; experiment: ELISA, coated ECD-Fc, antibody 12.860 ng/mL
Protocol: as §1

Human c-Met-Flis-Fc ECD [12] = target: T2, Human c-Met-Flis-Fc ECD; experiment: ELISA, coated ECD-Fc, antibody 0.060 ng/mL
Protocol: as §1

Human c-Met-Flis-Fc ECD [13] = target: T2, Human c-Met-Flis-Fc ECD; experiment: SPR Biacore, antibody captured, ECD-Fc analyte, 1:1 model
Protocol: (§2) A Biacore® 2000 instrument is used to measure the binding kinetics of c-Met antibodies to human, cynomolgus monkey, and rat c-Met ECDs. Measurements are performed at 25° C. Samples are dissolved in HBS-EP buffer (150 mM sodium chloride, 3 mM EDTA, 0.005% (w/v) surfactant P-20, and 10 mM N-2-hydroxyethylpiperazine-N′-2-ethanesulfonic acid (HEPES) at pH 7.4; #BR-1001-88).
(§3) Binding is evaluated using multiple cycles. Each cycle is performed at a flow rate of 50 μL/min., and consists of the following steps: injection of about 10 μL of a c-Met antibody at 10 μg/mL aiming at a capture of 40-100 RUs, injection of 250 μL of human, cynomolgus, or rat c-Met-Flis-Fc ECD (starting at 100 nM and using two-fold serial dilutions for each cycle) followed by 20 min. for dissociation, and regeneration using about 30 μL of 10 mM glycine hydrochloride, pH 1.5. Association and dissociation rates for each cycle are evaluated using a “1:1 (Langmuir) binding” model in the BIAevaluation software, version 4.1.

Rat c-Met-Flis-Fc ECD = target: T3, Rat c-Met-Flis-Fc ECD (rat); experiment: as above
T3 construct: also called Rat cMet-ECD-Fc-Flis; rat c-Met ECD
Protocol: as §2, §3

[14] = target: T4, Cynomolgus Monkey c-Met-Flis-Fc ECD (cynomolgus monkey); experiment: as above
T4 construct: also called Cynomolgus Monkey cMet-ECD-Fc-Flis; cynomolgus monkey c-Met ECD
Protocol: as §2, §3

Human c-Met-Flis-Fc ECD [15] = target: T2, Human c-Met-Flis-Fc ECD; experiment: ELISA, coated ECD-Fc, antibody 100000.000 ng/mL
Protocol: as §1

Human c-Met-Flis-Fc ECD [16] = target: T2, Human c-Met-Flis-Fc ECD; experiment: ELISA, coated ECD-Fc, antibody 16666.667 ng/mL
Protocol: as §1

T3 sequence (chain, as listed by the source limits assumed): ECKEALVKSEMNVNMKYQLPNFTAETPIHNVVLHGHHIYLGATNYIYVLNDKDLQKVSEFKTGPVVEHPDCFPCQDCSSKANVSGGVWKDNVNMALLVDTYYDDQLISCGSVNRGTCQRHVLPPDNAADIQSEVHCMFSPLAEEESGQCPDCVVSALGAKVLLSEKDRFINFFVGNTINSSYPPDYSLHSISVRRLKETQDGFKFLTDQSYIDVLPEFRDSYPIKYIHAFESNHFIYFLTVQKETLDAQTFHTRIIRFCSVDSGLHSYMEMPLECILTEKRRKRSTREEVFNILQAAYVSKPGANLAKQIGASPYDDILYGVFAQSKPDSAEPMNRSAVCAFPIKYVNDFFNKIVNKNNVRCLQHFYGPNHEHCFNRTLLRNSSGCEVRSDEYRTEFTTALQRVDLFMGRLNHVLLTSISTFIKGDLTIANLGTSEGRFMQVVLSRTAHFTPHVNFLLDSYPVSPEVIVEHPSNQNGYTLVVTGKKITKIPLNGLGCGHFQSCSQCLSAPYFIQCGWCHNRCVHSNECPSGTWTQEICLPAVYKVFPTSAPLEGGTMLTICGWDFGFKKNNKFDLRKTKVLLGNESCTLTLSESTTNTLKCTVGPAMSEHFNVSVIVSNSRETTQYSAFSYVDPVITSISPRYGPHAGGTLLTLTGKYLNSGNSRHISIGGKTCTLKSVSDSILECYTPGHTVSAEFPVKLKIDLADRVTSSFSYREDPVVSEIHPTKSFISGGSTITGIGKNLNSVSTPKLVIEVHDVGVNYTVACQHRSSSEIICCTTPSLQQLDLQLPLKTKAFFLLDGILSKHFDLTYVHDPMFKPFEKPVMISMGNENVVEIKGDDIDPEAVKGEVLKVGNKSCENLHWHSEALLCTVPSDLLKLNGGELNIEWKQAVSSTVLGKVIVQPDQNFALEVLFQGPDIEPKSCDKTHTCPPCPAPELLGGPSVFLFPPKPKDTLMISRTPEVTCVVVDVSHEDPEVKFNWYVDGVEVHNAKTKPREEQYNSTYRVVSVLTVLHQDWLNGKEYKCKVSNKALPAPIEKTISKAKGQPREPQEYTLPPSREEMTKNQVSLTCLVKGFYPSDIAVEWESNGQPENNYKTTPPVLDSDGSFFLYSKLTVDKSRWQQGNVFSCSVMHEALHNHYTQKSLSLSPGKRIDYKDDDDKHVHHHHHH
T4 sequence (chain, as listed by the source limits assumed): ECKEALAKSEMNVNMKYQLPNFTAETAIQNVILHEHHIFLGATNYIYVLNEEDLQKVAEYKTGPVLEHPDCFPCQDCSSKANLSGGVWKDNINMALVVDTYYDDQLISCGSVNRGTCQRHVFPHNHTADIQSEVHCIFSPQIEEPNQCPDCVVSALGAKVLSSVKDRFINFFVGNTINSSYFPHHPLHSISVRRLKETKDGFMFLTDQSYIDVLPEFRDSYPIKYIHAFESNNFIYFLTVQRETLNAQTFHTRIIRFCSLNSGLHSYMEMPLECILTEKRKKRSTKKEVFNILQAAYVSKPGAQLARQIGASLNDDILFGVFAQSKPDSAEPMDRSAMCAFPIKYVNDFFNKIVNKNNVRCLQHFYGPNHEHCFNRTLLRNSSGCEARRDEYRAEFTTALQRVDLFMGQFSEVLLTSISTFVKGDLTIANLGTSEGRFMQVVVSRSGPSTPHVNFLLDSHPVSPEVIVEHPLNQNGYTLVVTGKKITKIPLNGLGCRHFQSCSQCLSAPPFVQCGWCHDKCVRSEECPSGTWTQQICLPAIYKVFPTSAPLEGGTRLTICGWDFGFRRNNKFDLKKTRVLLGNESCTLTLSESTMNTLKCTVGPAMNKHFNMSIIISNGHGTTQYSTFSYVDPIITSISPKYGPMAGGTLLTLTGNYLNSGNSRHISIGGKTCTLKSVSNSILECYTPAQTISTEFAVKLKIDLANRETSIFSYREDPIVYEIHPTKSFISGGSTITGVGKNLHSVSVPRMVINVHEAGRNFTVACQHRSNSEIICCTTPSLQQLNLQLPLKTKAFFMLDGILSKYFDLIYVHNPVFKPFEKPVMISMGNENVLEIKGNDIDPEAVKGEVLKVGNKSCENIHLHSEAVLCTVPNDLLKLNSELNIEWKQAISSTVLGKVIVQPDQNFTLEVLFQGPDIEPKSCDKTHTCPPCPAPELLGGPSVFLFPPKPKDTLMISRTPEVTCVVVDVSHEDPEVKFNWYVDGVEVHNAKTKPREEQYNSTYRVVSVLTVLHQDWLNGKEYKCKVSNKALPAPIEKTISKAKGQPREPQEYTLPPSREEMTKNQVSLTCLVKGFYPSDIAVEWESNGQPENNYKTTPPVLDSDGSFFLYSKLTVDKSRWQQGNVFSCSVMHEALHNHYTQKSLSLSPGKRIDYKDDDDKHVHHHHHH
T1 sequence (P08581 25-1390): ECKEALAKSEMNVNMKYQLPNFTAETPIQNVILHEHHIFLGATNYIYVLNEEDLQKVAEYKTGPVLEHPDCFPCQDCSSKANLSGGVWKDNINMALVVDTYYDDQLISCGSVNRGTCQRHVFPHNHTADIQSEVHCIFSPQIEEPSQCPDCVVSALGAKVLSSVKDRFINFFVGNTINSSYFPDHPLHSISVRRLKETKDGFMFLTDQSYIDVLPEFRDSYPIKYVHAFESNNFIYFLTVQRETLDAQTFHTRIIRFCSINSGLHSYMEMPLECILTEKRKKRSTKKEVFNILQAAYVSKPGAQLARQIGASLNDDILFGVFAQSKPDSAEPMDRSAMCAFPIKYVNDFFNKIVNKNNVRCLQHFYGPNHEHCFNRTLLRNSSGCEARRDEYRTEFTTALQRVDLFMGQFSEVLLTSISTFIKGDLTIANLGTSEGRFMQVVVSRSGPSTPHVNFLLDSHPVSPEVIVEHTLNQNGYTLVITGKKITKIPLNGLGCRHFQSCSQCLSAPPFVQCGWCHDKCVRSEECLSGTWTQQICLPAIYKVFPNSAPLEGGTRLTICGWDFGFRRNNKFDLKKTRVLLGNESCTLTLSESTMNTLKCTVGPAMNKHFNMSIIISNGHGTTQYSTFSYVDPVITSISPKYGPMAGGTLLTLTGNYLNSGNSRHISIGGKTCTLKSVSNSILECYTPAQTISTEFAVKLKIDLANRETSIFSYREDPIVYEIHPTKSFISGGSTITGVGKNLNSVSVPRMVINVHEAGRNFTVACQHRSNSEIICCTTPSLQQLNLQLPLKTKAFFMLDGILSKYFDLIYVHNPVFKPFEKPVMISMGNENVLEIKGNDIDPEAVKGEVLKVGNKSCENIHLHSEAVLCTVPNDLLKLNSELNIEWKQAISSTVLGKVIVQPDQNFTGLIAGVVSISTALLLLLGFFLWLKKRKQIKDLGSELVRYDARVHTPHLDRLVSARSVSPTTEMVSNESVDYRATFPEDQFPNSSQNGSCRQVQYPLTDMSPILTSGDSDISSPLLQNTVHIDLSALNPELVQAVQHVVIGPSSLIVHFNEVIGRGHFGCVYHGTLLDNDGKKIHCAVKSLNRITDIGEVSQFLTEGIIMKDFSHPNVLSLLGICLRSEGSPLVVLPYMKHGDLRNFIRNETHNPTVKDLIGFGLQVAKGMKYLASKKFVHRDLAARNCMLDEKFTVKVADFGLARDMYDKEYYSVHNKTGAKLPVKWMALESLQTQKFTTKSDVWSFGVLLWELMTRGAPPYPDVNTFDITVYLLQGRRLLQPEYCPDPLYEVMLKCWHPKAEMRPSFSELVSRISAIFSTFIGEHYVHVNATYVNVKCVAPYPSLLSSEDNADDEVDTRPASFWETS
T2 sequence (chain, as listed by the source limits assumed): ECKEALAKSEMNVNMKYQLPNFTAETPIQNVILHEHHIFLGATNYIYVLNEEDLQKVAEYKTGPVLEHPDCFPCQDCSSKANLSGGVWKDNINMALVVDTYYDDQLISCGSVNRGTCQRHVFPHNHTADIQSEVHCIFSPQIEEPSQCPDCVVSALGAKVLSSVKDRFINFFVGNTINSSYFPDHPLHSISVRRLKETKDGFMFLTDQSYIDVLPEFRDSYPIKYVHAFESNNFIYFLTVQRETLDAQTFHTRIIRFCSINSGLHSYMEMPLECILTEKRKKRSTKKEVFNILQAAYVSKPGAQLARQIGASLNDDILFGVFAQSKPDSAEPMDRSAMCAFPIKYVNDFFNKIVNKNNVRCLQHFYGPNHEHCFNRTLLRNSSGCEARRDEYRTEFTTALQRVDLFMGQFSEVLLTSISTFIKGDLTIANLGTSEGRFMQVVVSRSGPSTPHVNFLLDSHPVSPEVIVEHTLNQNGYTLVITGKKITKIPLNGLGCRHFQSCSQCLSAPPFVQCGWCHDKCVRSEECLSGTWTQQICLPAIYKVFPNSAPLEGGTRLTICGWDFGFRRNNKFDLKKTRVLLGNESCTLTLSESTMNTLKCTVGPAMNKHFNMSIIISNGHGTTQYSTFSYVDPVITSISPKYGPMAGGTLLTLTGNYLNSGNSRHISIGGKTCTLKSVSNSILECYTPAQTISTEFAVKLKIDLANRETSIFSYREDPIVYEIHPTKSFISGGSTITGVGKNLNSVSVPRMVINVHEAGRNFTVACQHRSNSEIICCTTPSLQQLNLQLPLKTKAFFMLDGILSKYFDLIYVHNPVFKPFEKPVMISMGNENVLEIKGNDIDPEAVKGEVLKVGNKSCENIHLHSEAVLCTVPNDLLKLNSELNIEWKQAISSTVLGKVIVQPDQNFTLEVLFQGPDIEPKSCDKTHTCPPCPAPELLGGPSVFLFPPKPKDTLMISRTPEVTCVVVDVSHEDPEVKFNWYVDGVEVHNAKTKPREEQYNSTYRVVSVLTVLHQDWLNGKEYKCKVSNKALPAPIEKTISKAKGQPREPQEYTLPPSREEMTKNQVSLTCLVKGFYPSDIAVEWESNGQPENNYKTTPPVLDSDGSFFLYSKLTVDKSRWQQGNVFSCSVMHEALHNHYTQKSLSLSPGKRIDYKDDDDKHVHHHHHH

B1: D11-C27G3 (antibody, human IgG2, kappa, V domains shown)
VH: QVQLVQSGAEVKKPGSSVKVSCKASGYTFTSRYIHWVRQAPGQGLEWMGWIYPVTGDTYYREPFKGRVTITADKSTSTAYMELSSLRSEDTAVYYCARGYGAFYYWGQGTLVTVSS
VL: EIVLTQSPGTLSLSPGERATLSCSVSSSISSTNLHWYQQKPGQAPRLLIYGTSRLRSGIPDRFSGSGSGTDFTLTISRLEPEDFAVYYCQQWSSYPYSFGQGTKLEIKR
Human c-Met [1]
  3H-Thymidine Incorporation in Caki-1 Cells in the Absence of HGF (AVG CPM), antibody dose 0.1 ng/mL: 17700 CPM
  3H-Thymidine Incorporation in Caki-1 Cells in the Absence of HGF (AVG CPM), antibody dose 0.4 ng/mL: 13600 CPM
  3H-Thymidine Incorporation in Caki-1 Cells in the Absence of HGF (AVG CPM), antibody dose 2.6 ng/mL: 13300 CPM
  3H-Thymidine Incorporation in Caki-1 Cells in the Absence of HGF (AVG CPM), antibody dose 15.4 ng/mL: 13800 CPM
  3H-Thymidine Incorporation in Caki-1 Cells in the Absence of HGF (AVG CPM), antibody dose 92.6 ng/mL: 14700 CPM
  3H-Thymidine Incorporation in Caki-1 Cells in the Absence of HGF (AVG CPM), antibody dose 555.6 ng/mL: 14500 CPM
  3H-Thymidine Incorporation in Caki-1 Cells in the Absence of HGF (AVG CPM), antibody dose 3333.3 ng/mL: 15800 CPM
  3H-Thymidine Incorporation in Caki-1 Cells in the Absence of HGF (AVG CPM), antibody dose 20000.0 ng/mL: 16100 CPM
Human c-Met [2]
  3H-Thymidine Incorporation in Primary Human Hepatocytes in the Absence of HGF (average), dose 0.0032 ug/mL: 693
  3H-Thymidine Incorporation in Primary Human Hepatocytes in the Absence of HGF (average), dose 0.016 ug/mL: 892
  3H-Thymidine Incorporation in Primary Human Hepatocytes in the Absence of HGF (average), dose 0.08 ug/mL: 1280
  3H-Thymidine Incorporation in Primary Human Hepatocytes in the Absence of HGF (average), dose 0.4 ug/mL: 1750
  3H-Thymidine Incorporation in Primary Human Hepatocytes in the Absence of HGF (average), dose 2 ug/mL: 1870
  3H-Thymidine Incorporation in Primary Human Hepatocytes in the Absence of HGF (average), dose 10 ug/mL: 2150

B2: D11-S17Y (antibody, human IgG2, kappa, V domains shown)
VH: QVQLVQSGAEVKKPGSSVKVSCKASGYTFTSRYIHWVRQAPGQGLEWMGWIYPVTGDTYYNEKFKGRVTITADKSTSTAYMELSSLRSEDTAVYYCARGYGAFYYWGQGTLVTVSS
VL: EIVLTQSPGTLSLSPGERATLSCSVSSSISSTNLHWYQQKPGQAPRLLIYGTSYLASGIPDRFSGSGSGTDFTLTISRLEPEDFAVYYCQQWSSYPYSFGQGTKLEIKR
Human c-Met [1]
  3H-Thymidine Incorporation in Caki-1 Cells in the Absence of HGF (AVG CPM), antibody dose 0.1 ng/mL: 15900 CPM
  3H-Thymidine Incorporation in Caki-1 Cells in the Absence of HGF (AVG CPM), antibody dose 0.4 ng/mL: 14600 CPM
  3H-Thymidine Incorporation in Caki-1 Cells in the Absence of HGF (AVG CPM), antibody dose 2.6 ng/mL: 14900 CPM
  3H-Thymidine Incorporation in Caki-1 Cells in the Absence of HGF (AVG CPM), antibody dose 15.4 ng/mL: 14600 CPM
  3H-Thymidine Incorporation in Caki-1 Cells in the Absence of HGF (AVG CPM), antibody dose 92.6 ng/mL: 15300 CPM
  3H-Thymidine Incorporation in Caki-1 Cells in the Absence of HGF (AVG CPM), antibody dose 555.6 ng/mL: 16600 CPM
  3H-Thymidine Incorporation in Caki-1 Cells in the Absence of HGF (AVG CPM), antibody dose 3333.3 ng/mL: 17900 CPM
  3H-Thymidine Incorporation in Caki-1 Cells in the Absence of HGF (AVG CPM), antibody dose 20000.0 ng/mL: 18600 CPM
Human c-Met [2]
  3H-Thymidine Incorporation in Primary Human Hepatocytes in the Absence of HGF (average), dose 0.0032 ug/mL: 726
  3H-Thymidine Incorporation in Primary Human Hepatocytes in the Absence of HGF (average), dose 0.016 ug/mL: 920
  3H-Thymidine Incorporation in Primary Human Hepatocytes in the Absence of HGF (average), dose 0.08 ug/mL: 1460
  3H-Thymidine Incorporation in Primary Human Hepatocytes in the Absence of HGF (average), dose 0.4 ug/mL: 1910
  3H-Thymidine Incorporation in Primary Human Hepatocytes in the Absence of HGF (average), dose 2 ug/mL: 2570
  3H-Thymidine Incorporation in Primary Human Hepatocytes in the Absence of HGF (average), dose 10 ug/mL: 3160

B3: D11-C27G3 (antibody, human IgG2, kappa, V domains shown)
VH: QVQLVQSGAEVKKPGSSVKVSCKASGYTFTSRYIHWVRQAPGQGLEWMGWIYPVTGDTYYREPFKGRVTITADKSTSTAYMELSSLRSEDTAVYYCARGYGAFYYWGQGTLVTVSS
VL: EIVLTQSPGTLSLSPGERATLSCSVSSSISSTNLHWYQQKPGQAPRLLIYGTSRLRSGIPDRFSGSGSGTDFTLTISRLEPEDFAVYYCQQWSSYPYSFGQGTKLEIKR
notes: Human engineered IgG2, kappa; also called D11-27G3
Human c-Met-Flis-Fc ECD [3]
  Average A450 nm: 0.271 A450 nm
Human c-Met-Flis-Fc ECD [4]
  Average A450 nm: 1.44 A450 nm
Human c-Met-Flis-Fc ECD [5]
  Average A450 nm: 0.284 A450 nm
Human c-Met-Flis-Fc ECD [6]
  Average A450 nm: 2.53 A450 nm
Human c-Met-Flis-Fc ECD [7]
  Average A450 nm: 4 A450 nm
Human c-Met-Flis-Fc ECD [8]
  Average A450 nm: 4 A450 nm
Human c-Met-Flis-Fc ECD [9]
  Average A450 nm: 4 A450 nm
Human c-Met-Flis-Fc ECD [10]
  Average A450 nm: 0.29 A450 nm
Human c-Met-Flis-Fc ECD [11]
  Average A450 nm: 4 A450 nm
Human c-Met-Flis-Fc ECD [12]
  Average A450 nm: 0.46 A450 nm
Human c-Met-Flis-Fc ECD [13]
  Kd: 1.4 nM
  koff: 9e-05 s⁻¹
  kon: 64000 M⁻¹ s⁻¹
Rat c-Met-Flis-Fc ECD
  Kd: 2.7 nM
  koff: 0.00034 s⁻¹
  kon: 130000 M⁻¹ s⁻¹
[14]
  Kd: 6.5 nM
  koff: 0.00032 s⁻¹
  kon: 50000 M⁻¹ s⁻¹
Human c-Met-Flis-Fc ECD [15]
  Average A450 nm: 3.92 A450 nm
Human c-Met-Flis-Fc ECD [16]
  Average A450 nm: 4 A450 nm

B4: D11-8B8 (antibody, human IgG2, kappa, V domains shown)
VH: QVQLVQSGAEVKKPGSSVKVSCKASGYTFTSRYIHWVRQAPGQGLEWMGWIYPVTGDTYYIEKFKGRVTITADKSTSTAYMELSSLRSEDTAVYYCARGYGAFFYWGQGTLVTVSS
VL: EIVLTQSPGTLSLSPGERATLSCSVSSSISSTNLHWYQQKPGQAPRLLIYGTSYLASGIPDRFSGSGSGTDFTLTISRLEPEDFAVYYCQQWSSYPYSFGQGTKLEIKR
notes: Human engineered IgG2, kappa; expressed in HEK293 EBNA cells; also called Mab D11-8B8
Human c-Met-Flis-Fc ECD [3]
  Average A450 nm: 0.299 A450 nm
Human c-Met-Flis-Fc ECD [4]
  Average A450 nm: 1.31 A450 nm
Human c-Met-Flis-Fc ECD [5]
  Average A450 nm: 0.297 A450 nm
Human c-Met-Flis-Fc ECD [6]
  Average A450 nm: 2.42 A450 nm
Human c-Met-Flis-Fc ECD [7]
  Average A450 nm: 4 A450 nm
Human c-Met-Flis-Fc ECD [8]
  Average A450 nm: 4 A450 nm
Human c-Met-Flis-Fc ECD [9]
  Average A450 nm: 4 A450 nm
Human c-Met-Flis-Fc ECD [10]
  Average A450 nm: 0.304 A450 nm
Human c-Met-Flis-Fc ECD [11]
  Average A450 nm: 3.93 A450 nm
Human c-Met-Flis-Fc ECD [12]
  Average A450 nm: 0.445 A450 nm
Human c-Met-Flis-Fc ECD [13]
  Kd: 0.5 nM
  koff: 5e-05 s⁻¹
  kon: 100000 M⁻¹ s⁻¹
Rat c-Met-Flis-Fc ECD
  Kd: 0.89 nM
  koff: 0.00019 s⁻¹
  kon: 210000 M⁻¹ s⁻¹
[14]
  Kd: 2.9 nM
  koff: 0.000223 s⁻¹
  kon: 78000 M⁻¹ s⁻¹
Human c-Met-Flis-Fc ECD [15]
  Average A450 nm: 4 A450 nm
Human c-Met-Flis-Fc ECD [16]
  Average A450 nm: 4 A450 nm
